# Experimental data taken from patent US20220403048A1, “BINDING MOLECULES TO ARGINASE II [ARG2]” (Cancer Research Technology Limited, priority 2019, published 2022).
# T1: THP-1 lysate derived human trimeric ARG2 (Homo sapiens, UniProt P78540)
# T1 construct: expressed in transfected cells; host or cells: THP-1 cells overexpressing human ARG2 (cell lysate)
# T1 sequence (P78540 23-354): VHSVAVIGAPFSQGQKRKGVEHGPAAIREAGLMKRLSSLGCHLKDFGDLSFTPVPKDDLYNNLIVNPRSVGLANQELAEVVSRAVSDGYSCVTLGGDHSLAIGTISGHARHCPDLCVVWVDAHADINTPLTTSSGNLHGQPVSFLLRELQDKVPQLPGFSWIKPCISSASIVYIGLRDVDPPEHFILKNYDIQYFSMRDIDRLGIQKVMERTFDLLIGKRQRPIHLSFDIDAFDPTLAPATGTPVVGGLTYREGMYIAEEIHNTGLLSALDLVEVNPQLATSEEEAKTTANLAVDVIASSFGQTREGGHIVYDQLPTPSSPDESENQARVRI
# B1: C0020065: anti-ARG2 antibody, alternate lead isolation clone, VH SEQ ID NO: 2, VL SEQ ID NO: 7 (antibody, listed as Homo sapiens, V domains shown)
# VH: GVNLRESGGGVVQPGRSLRLSCAASGFTFSSYAMHWVRQAPGKGLEWVAVISYDGSNKYYVDSVKGRFTISRDNSKNTLYLQMNSLRAEDTAVYYCARDSSQLWFDYWGRGTLVTVSS
# VL: QSVVTQPPSVSGAPGQRVTISCTGSSSNIGTGYDVHWYQQLPGTAPKLLIYGNSNRPSGVPDRFSGSKSGTSASLAITGLQAEDEADYYCQSYDSSLSGSVVFGGGTQLTVL
# modifications: C0020065
# Molecular target: T1, THP-1 lysate derived human trimeric ARG2
# Assay: ELISA binding to THP-1 lysate derived human ARG2
# Conditions: biotinylated recombinant human IgG1, FIG. 6
# Protocol: C0020187 and C0020065 IgGs were tested for their ability to bind to mammalian expressed human ARG2 produced in transfected THP-1 cells. Lysates of human ARG2 transfected THP-1 cells were prepared and binding to these lysates measured using an ELISA.
# Cell lysates were prepared from THP-1 cells overexpressing human ARG2 and from wild type THP-1 cells. Between 600,000-1,000,000 cells were suspended in 1 ml tris-buffered saline (25 mM tris+150 mM sodium chloride in dH2O, pH 7.4) and cell lysates prepared using QIAshredders (QIAgen, UK; cat: 79654).
# For the ELISA, maxisorp white plates (Nunc; cat: 437796) were coated overnight at 4° C. with rabbit anti-human ARG2 antibody (Abcam, ab137069) at 1 μg/ml in PBS. The next day, the plate was washed with PBS and blocked with casein blocker (Thermo Scientific, 37528). […]
# The blocked ELISA plate was washed with PBS and 50 μl of the pre-incubation mixtures were transferred to the ELISA plate and incubated for 90 minutes at room temperature. […] Next, 100 μl PICO ELISA substrate (Thermo Scientific, 37070) was added to each well, the plate was incubated for 1 minute at room temperature in the dark before being read for luminescence using the Envision plate reader. Data were analysed using GraphPad Prism. […]
molecule,measurement,value
B1,binding to THP-1 lysate derived human trimeric ARG2,strong binding
